In the supplement of paper PMC10567573 one finds protein stability index data, which are given here for 72 sequences.

The data set in a line: protein stability index of a GFP-peptide fusion (GPS, HEK-293T) (PSI 1-6); higher = more stable.
Setting [1] is: treatment: DMSO, c terminus: a fixed tail appended.
Where [2] appears, read: treatment: MLN4924 1 uM, 8 h, c terminus: a fixed tail appended.
Where [3] appears, read: treatment: DMSO, c terminus: native.
[4] abbreviates: treatment: MLN4924 1 uM, 8 h, c terminus: native.

± gives the standard deviation.
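Further: 24-mer peptide tiles fused after GFP, lentivirally expressed, FACS-sorted into six equal bins by GFP/DsRed ratio, decoded by Illumina sequencing, PSI is the read-weighted mean bin number.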

Turning to IPHTHLLATLDPLALDREPPPHLL [WDR88], the protein stability index was determined as 3.23 ± 0.12 under setting [1] and 3.26 ± 0.14 under setting [2].
In the case of QAYKWSNKLQYHAGLASGLLNQQS [MED27], the protein stability index under setting [1] is 2.46 ± 0.28 and the protein stability index under setting [2] was 2.42 ± 0.096.
Taken in the same sequence, the figures for HCRKCGKAVCGKCSSKRSSIPLMG [WDFY2] were 3.94 ± 0.21 and 3.93 ± 0.17.
The like results for CLSTWLLHFIATNYLIFSQKPEFQ [RHOBTB3] were, in that order, 3.09 ± 0.19 and 3.22 ± 0.2.
Taken in the same sequence, the figures for FSLLEELKEGMLMKIKQDRASRTY [FSD1] were 2.63 ± 0.42 and 2.66 ± 0.14.
Take RPLARPIKRGDILPPEKGREVAKE [RHOBTB1]: the protein stability index under setting [1] turned out to be 5.17 ± 0.088 and the protein stability index under setting [2] was 4.97 ± 0.12.
Taken in the same sequence, the figures for CTSVNTIYDNAVQGLRRHEILQWV [LRRC59] were 2.3 ± 0.17 and 2.13 ± 0.2.
The like results for SGLDSPSHAAPGPSPDSWVPRPGT [FCHO1] were, in that order, 4.08 ± 0.18 and 4.25 ± 0.19.
Taken in the same sequence, the figures for QLIYNHITTRVNSEQEHFLIVPFG [ADD1] were 2.41 ± 0.27 and 2.26 ± 0.08.
With EKLITWLNKELNENQLVRKQDVLG [SASS6], the protein stability index reads like this: under setting [1], 2.12 ± 0.44; under setting [2], 3.1 ± 0.26.
The like results for PTARHFQEHPRQQLATSSFLLFLL [MOSPD3] were, in that order, 2.2 ± 0.24 and 2.23 ± 0.4.
Taken in the same sequence, the figures for DEEKKARRGRSPKGEFKDEEETVT [CLINT1] were 5.43 ± 0.28 and 5.57 ± 0.14.
Taken in the same sequence, the figures for RAPSERSGPAASEHSHRSHHSLAS [DVL3] were 4.68 ± 0.28 and 4.68 ± 0.21.
For DVKKLEEAGFHTVEAVAYAPKKEL [RAD51], the protein stability index by setting is: under setting [1], 4.73 ± 0.2; under setting [2], 4.91 ± 0.078.
Consider SGSLEILQLLLGCKARMERDGYGM [FEM1A], for which the protein stability index came out at 2.92 ± 0.51 under setting [1] and 3.05 ± 0.6 under setting [2].
The like results for DYCKGGYHPVKIGDLFNGRYHVIR [SRPK2] were, in that order, 1.99 ± 0.32 and 2.23 ± 0.25.
The like results for SDKETDIDDRYGDLDSRTDSDIPE [CDS1] were, in that order, 5.54 ± 0.31 and 5.43 ± 0.27.
TIQVHRRYWRSLRVMKVEDREGPS [HDAC6] gave a protein stability index under setting [1] of 2.31 ± 0.21 and a protein stability index under setting [2] of 3.14 ± 0.34.
Take RQNDILQVVSQGWKYFKGNFYYFS [CD207]: the protein stability index stood at 2.3 ± 0.73 under setting [1] and 2.06 ± 0.58 under setting [2].
Taken in the same sequence, the figures for AWIWHDCHRHYHSMEVFTHYDLLN [LOXL2] were 2.41 ± 0.14 and 3 ± 1.2.
In the case of RVEASHLTTSQERELGIRQRDEQL [FBF1], the protein stability index reads like this: under setting [1], 4.91 ± 0.22; under setting [2], 5.13 ± 0.22.
With EKKKGKAKKKRLTKADIGTPSNFQ [WASL], the protein stability index by setting is: under setting [1], 4.62 ± 0.099; under setting [2], 4.63 ± 0.062.
On to KPGKGADLSKPPCRKAKEIRKERK [ATE1], for which the protein stability index was found to be 4.65 ± 0.44 under setting [1] and 5.04 ± 0.3 under setting [2].
EAVAGAEGREAPALVAAGGAPEDD [DENND6A] displayed a protein stability index under setting [1] of 5.63 ± 0.16 and a protein stability index under setting [2] of 5.74 ± 0.12.
Taken in the same sequence, the figures for TISFLGCAIQMFSFLFLGCSHSFL [OR10K2] were 3.14 ± 0.41 and 3.6 ± 0.52.
Taken in the same sequence, the figures for IQDGTIHLYIYSIHSIPKGTEITI [KMT2E] were 2.48 ± 0.43 and 3.24 ± 0.15.
For NTRVRELAQAAGFAPQTGARPSET [DNAAF3], the protein stability index runs as follows: under setting [1], 4.71 ± 0.11; under setting [2], 4.79 ± 0.25.
The like results for KARDWFQGHLRRLRSRYSVASFKF [MYORG] were, in that order, 2.21 ± 0.33 and 2.15 ± 0.29.
The like results for KLPLPVTIKSHLKSFSMANGMNAV [RAB40C] were, in that order, 2.36 ± 0.18 and 2.46 ± 0.093.
The like results for MGHIKPDLIDVDLIRGSTFAKAKP [PHTF1] were, in that order, 3.56 ± 0.24 and 3.67 ± 0.35.
With LTADSRKSHLIFPQPNYADTLISQ [PCDHGA10], the protein stability index came out at 3.17 ± 0.17 under setting [1] and 3.11 ± 0.27 under setting [2].
In the case of LSSAPSSRAEPIRTTVFQYPVGWP [ZMAT5], the protein stability index was found to be 2.86 ± 0.22 under setting [1] and 2.94 ± 0.19 under setting [2].
The like results for QADTVHSNPELDVLLLGSVDGRHL [DNAAF3] were, in that order, 3.77 ± 0.4 and 4 ± 0.3.
Turning to RVRVELQEQNGRLQAELAAQEALR [LRRC45], the protein stability index is, setting by setting: under setting [1], 4.58 ± 0.079; under setting [2], 3.98 ± 0.55.
The like results for CISKNEWIQFNHPYTEKPRLWHTA [KLHDC2] were, in that order, 2.43 ± 0.48 and 2.36 ± 0.3.
Taken in the same sequence, the figures for QTEELKYSIDQEFLKEYFPIEVVT [NLN] were 3.23 ± 0.37 and 3.49 ± 0.29.
Taken in the same sequence, the figures for IHLSAPCIYSEVMEALDLQPGLSF [PCMTD2] were 2.23 ± 0.23 and 1.96 ± 0.41.
Take IRDQMQQQLNDYEQLLDVKLALDM [LMNB1]: the protein stability index came to 3.4 ± 0.25 under setting [1] and 3.48 ± 0.36 under setting [2].
The like results for AWETKKILAVSFAPLIQPCHSESG [PCMTD2] were, in that order, 2.35 ± 0.2 and 2.54 ± 0.35.
The like results for VQHERIHTGDKPYKCAECGKSFCH [ZNF8] were, in that order, 4.54 ± 0.33 and 4.68 ± 0.16.
The like results for QAGPSPAPPTPPEEEDLRRRLKYF [MCOLN1] were, in that order, 4.91 ± 0.14 and 4.99 ± 0.17.
With YLDKAPPPGLPAETIKDLMRQFLR [CDK4], the protein stability index was determined as 4.45 ± 0.2 under setting [1] and 4.23 ± 0.39 under setting [2].
With DGNKIFLCHCGKAFSHKSMRDRHV [ZBTB22], the protein stability index under setting [1] was found to be 2.39 ± 0.4 and the protein stability index under setting [2] is 2.61 ± 0.56.
The like results for DILVLLGASLYAISNVCEEYIVKK [SLC35F2] were, in that order, 3.41 ± 0.61 and 2.89 ± 0.47.
The like results for HNQKVHMHMVDLMSSIICEGDTVS [PDS5B] were, in that order, 2.46 ± 0.17 and 2.64 ± 0.26.
Turning to NKTQQVIHIIDFGLAKEYIDPETK [CSNK1G3], the protein stability index was determined as 2.48 ± 0.52 under setting [1] and 2.47 ± 0.41 under setting [2].
The like results for QPIHLWQFLKELLLKPHSYGRFIR [SPDEF] were, in that order, 2.69 ± 0.13 and 2.65 ± 0.19.
The like results for YGSCYTVDGVWTAQRPGITHGVGL [SCNN1D] were, in that order, 2.69 ± 0.5 and 2.2 ± 0.15.
The like results for EYTCDVEKRSRGQVLFDKVCEHLN [EPB41L3] were, in that order, 2.16 ± 0.32 and 2.05 ± 0.61.
Regarding KRTYWPDLDAKIREALVLRSVRVR [PLD5], the protein stability index reads like this: under setting [1], 2.4 ± 0.36; under setting [2], 2.77 ± 0.38.
The like results for TTFQDVYFVSESFEDAKEKMREFT [TPH1] were, in that order, 3.61 ± 0.2 and 3.58 ± 0.29.
The like results for ILLVGYPPFWDEDQHRLYKQIKAG [CAMK2A] were, in that order, 2.29 ± 0.32 and 2.24 ± 0.19.
Taken in the same sequence, the figures for FVEYCDVNNDKSISVQELMGCLGV [SMOC2] were 2.39 ± 0.86 and 2.46 ± 0.38.
The sequence ADIFRIYAPEAPYTSPDKLKDIFM [PDS5B] came in with a protein stability index under setting [1] of 2.06 ± 0.11 and a protein stability index under setting [2] of 2.1 ± 0.21.
Taken in the same sequence, the figures for QKNFELAFTMAENLANCERLIEVE [SMTNL2] were 2.45 ± 0.2 and 2.88 ± 0.67.
Taken in the same sequence, the figures for SVVDHPMPEERASKYENYFSASER [HESX1] were 4.73 ± 0.37 and 4.76 ± 0.17.
The like results for FDALDDYEHHYHTLHGNVCSFCKR [ZNF511] were, in that order, 3.83 ± 0.33 and 4.19 ± 0.41.
For the sequence MYEMLIGYPPFCSETPQETYRKVM [STK38L], the protein stability index was 2.2 ± 0.33 under setting [1] and 2.1 ± 0.3 under setting [2].
Consider LESRQRSLEQANRSLQLRIQELEL [TFE3], for which the protein stability index stood at 3.97 ± 0.27 under setting [1] and 3.98 ± 0.4 under setting [2].
The like results for PGSILYSSSGDLADLENEDIFPEL [DLC1] were, in that order, 4.69 ± 0.14 and 4.77 ± 0.32.
In the case of KIPGTGALASAAAAVSGSKAKAE [RTN2], the protein stability index amounted to 5.34 ± 0.14 under setting [3] and 5.32 ± 0.14 under setting [4].
In the case of NGTGDSNDFWRIEVVNRKFGNRIK [POMT2], the protein stability index runs as follows: under setting [1], 3.25 ± 0.26; under setting [2], 3.46 ± 0.41.
On to AIHSSDEGEDQAGDEDEDDEWDD [WAS], for which the protein stability index by setting is: under setting [3], 5.06 ± 0.3; under setting [4], 5.25 ± 0.29.
As to LLLASGLVITDFFGHLINGAIAVF [PTGFR], the protein stability index turned out to be 3.29 ± 0.72 under setting [1] and 3.19 ± 0.86 under setting [2].
The like results for EFDSEHNLTSNEGHSLKNLEHRLN [RASAL3] were, in that order, 4.82 ± 0.49 and 4.67 ± 0.49.
Taken in the same sequence, the figures for VGRGEVVTVRVPTHEEGSYLFWEF [ACBD3] were 2.64 ± 0.44 and 2.34 ± 0.26.
The like results for SYWEDLRKQARQLENELDLKLVSF [GOSR1] were, in that order, 2.37 ± 0.24 and 2.57 ± 0.2.
Consider LGSSAASTALERPSFLSQTGHGVS [FCHO1], for which the protein stability index runs as follows: under setting [1], 4.28 ± 0.45; under setting [2], 4.2 ± 0.24.
The like results for FSSSSQEAFAASAVGSGERRGGGP [ZBTB22] were, in that order, 3.66 ± 0.32 and 4.03 ± 0.34.
The like results for VRERILGADNIDVSHPIIYRGAVY [FEM1B] were, in that order, 2.13 ± 0.29 and 2.57 ± 0.32.
The like results for AEKSGEATDGARPQALPEPMQESK [CHGA] were, in that order, 5.47 ± 0.3 and 5.48 ± 0.22.
In the case of AGEVVCEAIKNEMNVMLKSSPVDL [IMPA1], the protein stability index reads like this: under setting [1], 3.67 ± 0.91; under setting [2], 4.11 ± 0.25.
